According to the supplement of paper PMC10724198:
± gives the standard deviation of the averaged measurements.

How the values were obtained:
Saccharomyces cerevisiae [1] = assay: protein stability index of tFT-peptide fusion (C-terminal peptide) (PSI (0-1 scale)); higher = more stable (slower turnover)
Procedure: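 MPS profiling in S. cerevisiae of the tFT-X12 degron library: putative degron peptides plus stable controls, 12 aa, fused to the C-terminus of a sfGFP-mCherry timer. Cells are FACS-sorted into 8 mCherry/sfGFP bins and deep-sequenced. PSI runs from 0 (unstable) to 1 (stable). Backgrounds are wild type, das1Δ and doa10Δ at 30 °C, and wild type, das1Δ, cdc34-1 and cdc53-1 at 37 °C; 2-3 technical replicates each.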

Saccharomyces cerevisiae [2] = assay: as above; settings: genetic background: wild type; temperature: 30 C
[3] = genetic background: cdc34-1, temperature: 37 C
[4] = genetic background: cdc53-1, temperature: 37 C
[5] = genetic background: das1 deletion, temperature: 30 C
[6] = genetic background: das1 deletion, temperature: 37 C
[7] = genetic background: doa10 deletion, temperature: 30 C
[8] = genetic background: wild type, temperature: 30 C
[9] = genetic background: wild type, temperature: 37 C
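Note: PSI is a weighted mean of sequencing reads over stability bins, variants kept only with over 10 reads, mCherry proximal and sfGFP distal, peptide attached via GGGS linker.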

| Sequence | protein stability index (Saccharomyces cerevisiae [1]; [3]) | protein stability index (Saccharomyces cerevisiae [1]; [4]) | protein stability index (Saccharomyces cerevisiae [1]; [5]) | protein stability index (Saccharomyces cerevisiae [1]; [6]) | protein stability index (Saccharomyces cerevisiae [1]; [7]) | protein stability index (Saccharomyces cerevisiae [1]; [8]) | protein stability index (Saccharomyces cerevisiae [1]; [9]) | protein stability index (Saccharomyces cerevisiae [2]) |
| --- | --- | --- | --- | --- | --- | --- | --- | --- |
| KRSPPPATPSSG | 0.6827 ± 0.0047 | 0.73 ± 0.013 | 0.631 ± 0.025 | 0.76 ± 0.043 | 0.6035 ± 0.0057 | 0.623 ± 0.0081 | 0.704 ± 0.012 | 0.24 ± 0.034 |
| KSARLYVTSFLC | 0.571 ± 0.0067 | 0.682 ± 0.035 | 0.623 ± 0.012 | 0.739 ± 0.023 | 0.107 ± 0.012 | 0.123 ± 0.0064 | 0.179 ± 0.02 | 0.194 ± 0.0022 |
| KTRQLINKITQM | 0.6601 ± 0.00086 | 0.693 ± 0.019 | 0.62 ± 0.018 | 0.7358 ± 0.0036 | 0.137 ± 0.024 | 0.153 ± 0.031 | 0.288 ± 0.031 | 0.254 ± 0.072 |
| KYCPCIPLLIAL | 0.406 ± 0.0064 | 0.381 ± 0.012 | 0.339 ± 0.036 | 0.5 ± 0.012 | 0.387 ± 0.013 | 0.329 ± 0.033 | 0.443 ± 0.012 | 0.429 ± 0.0047 |
| LAVRSGFPFGLF | 0.642 ± 0.034 | 0.757 ± 0.013 | 0.674 ± 0.012 | 0.783 ± 0.036 | 0.117 ± 0.017 | 0.122 ± 0.03 | 0.224 ± 0.014 | 0.249 ± 0.0026 |
| LCLLHCSICISF | 0.352 ± 0.026 | 0.4113 ± 0.0012 | 0.301 ± 0.027 | 0.44881 ± 0.00028 | 0.285 ± 0.015 | 0.295 ± 0.036 | 0.4142 ± 0.0008 | 0.388 ± 0.014 |
| LCLLIHFWISHL | 0.302 ± 0.0069 | 0.44 ± 0.009 | 0.295 ± 0.028 | 0.43 ± 0.019 | 0.167 ± 0.0048 | 0.173 ± 0.013 | 0.2932 ± 0.0011 | 0.244 ± 0.023 |
| LCVFFRCFFVGG | 0.529 ± 0.046 | 0.588 ± 0.022 | 0.457 ± 0.015 | 0.608 ± 0.0094 | 0.433 ± 0.017 | 0.448 ± 0.018 | 0.5722 ± 0.0043 | 0.514 ± 0.028 |
| LCWRLCRFWWVG | 0.75 ± 0.068 | 0.8494 ± 0.0062 | 0.691 ± 0.033 | 0.829 ± 0.014 | 0.255 ± 0.0076 | 0.254 ± 0.024 | 0.424 ± 0.013 | 0.363 ± 0.016 |
| LDHGRVVWVVVS | 0.371 ± 0.036 | 0.43 ± 0.021 | 0.3 ± 0.034 | 0.493 ± 0.0092 | 0.174 ± 0.011 | 0.201 ± 0.023 | 0.284 ± 0.008 | 0.278 ± 0.022 |
| LDRLTTWTLIVR | 0.457 ± 0.031 | 0.455 ± 0.011 | 0.379 ± 0.026 | 0.524 ± 0.0076 | 0.413 ± 0.0057 | 0.365 ± 0.021 | 0.482 ± 0.0083 | 0.471 ± 0.031 |
| LERLHSVLLLTS | 0.246 ± 0.0054 | 0.254 ± 0.0079 | 0.223 ± 0.036 | 0.379 ± 0.0057 | 0.165 ± 0.019 | 0.217 ± 0.027 | 0.324 ± 0.011 | 0.284 ± 0.021 |
| LFFLPPCYWFLL | 0.665 ± 0.023 | 0.773 ± 0.024 | 0.5834 ± 0.0043 | 0.732 ± 0.049 | 0.384 ± 0.034 | 0.392 ± 0.03 | 0.571 ± 0.013 | 0.489 ± 0.019 |
| LFFWWVAVVFRV | 0.0928 ± 0.025 | 0.0916 ± 0.006 | 0.156 ± 0.049 | 0.236 ± 0.029 | 0.204 ± 0.016 | 0.133 ± 0.02 | 0.189 ± 0.014 | 0.23 ± 0.038 |
| LFLVFIGLFFLT | 0.348 ± 0.011 | 0.429 ± 0.035 | 0.359 ± 0.061 | 0.46 ± 0.011 | 0.338 ± 0.011 | 0.327 ± 0.015 | 0.441 ± 0.01 | 0.413 ± 0.012 |
| LFRFSRLFLFVL | 0.36 ± 0.034 | 0.446 ± 0.11 | 0.578 ± 0.0093 | 0.74 ± 0.028 | 0.214 ± 0.042 | 0.153 ± 0.034 | 0.201 ± 0.017 | 0.207 ± 0.061 |
| LFRRMWVEIFYV | 0.439 ± 0.044 | 0.541 ± 0.043 | 0.423 ± 0.029 | 0.566 ± 0.015 | 0.0969 ± 0.016 | 0.119 ± 0.0081 | 0.155 ± 0.021 | 0.253 ± 0.046 |
| LGKSTLYMALNN | 0.587 ± 0.057 | 0.716 ± 0.036 | 0.611 ± 0.011 | 0.695 ± 0.017 | 0.273 ± 0.013 | 0.309 ± 0.038 | 0.571 ± 0.11 | 0.402 ± 0.047 |
| LGVLVVCFNATY | 0.24 ± 0.0032 | 0.343 ± 0.0057 | 0.27 ± 0.014 | 0.42063 ± 0.00021 | 0.2506 ± 0.00074 | 0.264 ± 0.02 | 0.376 ± 0.017 | 0.354 ± 0.013 |
| LHLTFRLAVLYY | 0.3205 ± 0.002 | 0.355 ± 0.0097 | 0.293 ± 0.037 | 0.395 ± 0.03 | 0.317 ± 0.029 | 0.275 ± 0.021 | 0.371 ± 0.039 | 0.338 ± 0.032 |

| Sequence | protein stability index (Saccharomyces cerevisiae [1]; [3]) | protein stability index (Saccharomyces cerevisiae [1]; [4]) | protein stability index (Saccharomyces cerevisiae [1]; [5]) | protein stability index (Saccharomyces cerevisiae [1]; [6]) | protein stability index (Saccharomyces cerevisiae [1]; [7]) | protein stability index (Saccharomyces cerevisiae [1]; [8]) | protein stability index (Saccharomyces cerevisiae [1]; [9]) | protein stability index (Saccharomyces cerevisiae [2]) |
| --- | --- | --- | --- | --- | --- | --- | --- | --- |
| LIIVFGFTSILR | 0.441 ± 0.02 | 0.572 ± 0.018 | 0.36 ± 0.043 | 0.526 ± 0.018 | 0.355 ± 0.015 | 0.328 ± 0.037 | 0.509 ± 0.048 | 0.419 ± 0.093 |
| LIPFPGFFILLT | 0.244 ± 0.021 | 0.13 ± 0.0096 | 0.277 ± 0.021 | 0.37 ± 0.046 | 0.49 ± 0.023 | 0.28 ± 0.05 | 0.315 ± 0.054 | 0.436 ± 0.0094 |
| LISRGNRALFCI | 0.678 ± 0.044 | 0.739 ± 0.013 | 0.589 ± 0.017 | 0.755 ± 0.029 | 0.204 ± 0.015 | 0.224 ± 0.03 | 0.482 ± 0.016 | 0.314 ± 0.02 |
| LLAREILVIVAV | 0.181 ± 0.0035 | 0.229 ± 0.017 | 0.207 ± 0.032 | 0.32 ± 0.017 | 0.166 ± 0.0048 | 0.204 ± 0.015 | 0.271 ± 0.0034 | 0.307 ± 0.0051 |
| LLCLAVVLWFVV | 0.216 ± 0.035 | 0.338 ± 0.019 | 0.239 ± 0.031 | 0.4051 ± 0.0011 | 0.212 ± 0.012 | 0.241 ± 0.024 | 0.3362 ± 0.0005 | 0.307 ± 0.03 |
| LLCSPPPLTVPA | 0.394 ± 0.044 | 0.4424 ± 0.00065 | 0.324 ± 0.045 | 0.478 ± 0.017 | 0.275 ± 0.0087 | 0.327 ± 0.034 | 0.44 ± 0.0091 | 0.454 ± 0.025 |
| LLFVLWLSFFVL | 0.3135 ± 0.0016 | 0.384 ± 0.074 | 0.272 ± 0.03 | 0.449 ± 0.012 | 0.239 ± 0.0027 | 0.247 ± 0.034 | 0.382 ± 0.04 | 0.346 ± 0.031 |
| LLGDFAVLTCVF | 0.468 ± 0.049 | 0.496 ± 0.039 | 0.372 ± 0.024 | 0.4825 ± 0.0011 | 0.343 ± 0.0054 | 0.377 ± 0.027 | 0.465 ± 0.022 | 0.453 ± 0.0086 |
| LLGGFAAFWRIL | 0.631 ± 0.061 | 0.713 ± 0.0012 | 0.618 ± 0.012 | 0.753 ± 0.014 | 0.135 ± 0.015 | 0.15 ± 0.02 | 0.297 ± 0.026 | 0.226 ± 0.06 |
| LLLFLHILRYVF | 0.541 ± 0.026 | 0.551 ± 0.015 | 0.417 ± 0.028 | 0.581 ± 0.046 | 0.398 ± 0.025 | 0.368 ± 0.016 | 0.529 ± 0.088 | 0.414 ± 0.026 |
| LLLFLHSTLTCR | 0.474 ± 0.056 | 0.543 ± 0.01 | 0.408 ± 0.035 | 0.618 ± 0.018 | 0.383 ± 0.011 | 0.411 ± 0.02 | 0.558 ± 0.022 | 0.49 ± 0.011 |
| LLLLASLFFRLA | 0.522 ± 0.023 | 0.595 ± 0.01 | 0.467 ± 0.031 | 0.614 ± 0.03 | 0.177 ± 0.011 | 0.194 ± 0.015 | 0.37 ± 0.028 | 0.3 ± 0.016 |
| LLLPVFLVFSVS | 0.295 ± 0.046 | 0.417 ± 0.005 | 0.269 ± 0.037 | 0.482 ± 0.012 | 0.2258 ± 0.0016 | 0.256 ± 0.03 | 0.47 ± 0.058 | 0.326 ± 0.034 |
| LLLSLLVLRFFL | 0.37 ± 0.043 | 0.309 ± 0.007 | 0.356 ± 0.047 | 0.536 ± 0.033 | 0.5037 ± 0.0014 | 0.357 ± 0.028 | 0.501 ± 0.019 | 0.423 ± 0.027 |
| LLMPLLLHSLVW | 0.354 ± 0.021 | 0.396 ± 0.012 | 0.308 ± 0.019 | 0.455 ± 0.0014 | 0.308 ± 0.0067 | 0.335 ± 0.0096 | 0.434 ± 0.024 | 0.409 ± 0.005 |
| LLPSNFLLLVGV | 0.219 ± 0.051 | 0.204 ± 0.011 | 0.217 ± 0.03 | 0.325 ± 0.014 | 0.208 ± 0.012 | 0.231 ± 0.023 | 0.2857 ± 0.0024 | 0.289 ± 0.032 |
| LMIVSVRLLFFL | 0.229 ± 0.049 | 0.39 ± 0.0024 | 0.232 ± 0.029 | 0.419 ± 0.015 | 0.1617 ± 0.00049 | 0.172 ± 0.019 | 0.282 ± 0.014 | 0.2661 ± 0.002 |
| LPAICFWCVLVG | 0.0778 ± 0.014 | 0.136 ± 0.00061 | 0.164 ± 0.025 | 0.273 ± 0.035 | 0.133 ± 0.024 | 0.162 ± 0.04 | 0.21 ± 0.013 | 0.201 ± 0.0059 |
| LPNLPPTSPERH | 0.638 ± 0.0034 | 0.734 ± 0.015 | 0.652 ± 0.021 | 0.7046 ± 0.0062 | 0.6558 ± 0.0059 | 0.659 ± 0.015 | 0.703 ± 0.0097 | 0.663 ± 0.33 |
